The text below walks through data of the DeepSol protein solubility set.

The data set in a line: soluble on expression in E. coli; label from the status in PepcDB or PDB records.
As for “MTHQIVTTQYGKVKGTTENGVHKWKGIPYAKPPVGQWRFKAPEPPEVWEDVLDATAYGPICPQPSDLLSLSYTELPRQSEDCLYVNVFAPDTPSQNLPVMVWIHGGAFYLGAGSEPLYDGSKLAAQGEVIVVTLNYRLGPFGFLHLSSFDEAYSDNLGLLDQAAALKWVRENISAFGGDPDNVTVFGESAGGMSIAALLAMPAAKGLFQKAIMESGASRTMTKEQAASTAAAFLQVLGINESQLDRLHTVAAEDLLKAADQLRIAEKENIFQLFFQPALDPKTLPEEPEKSIAEGAASGIPLLIGTTRDEGYLFFTPDSDVHSQETLDAALEYLLGKPLAEKAADLYPRSLESQIHMMTDLLFWRPAVAYASAQSHYAPVWMYRFDWHPEKPPYNKAFHALELPFVFGNLDGLERMAKAEITDEVKQLSHTIQSAWITFAKTGNPSTEAVNWPAYHEETRETVILDSEITIENDPESEKRQKLFPSKGE”, the “soluble on expression in E. coli” value is on record as “soluble”. “MTHRTKTRPVKVGNLTIGGNNELIIQSMTTTKTHDVEATVAEIKRLEEAGCQVVRVAVPDERAANAIADIKKQINIPLVADIHFDYRLALKAIEGGIDKVRINPGNIGRRHKVEAVVNAAKERGIPIRIGVNAGSLERHILEKYGYPTADGMVESALHHIKILEDLDFHDIIVSMKASDVNLAIEAYEKAARAFDYPLHLGITESGTLFAGTVKSAAGLGAILNKGIGNTLRISLSADPVEEVKVARELLKSFGLASNAATLISCPTCGRIEIDLISIANEVEEYISTLQVPIKVAVLGCAVNGPGEAREADIGIAGARGEGLLFRKGQVVRKVPEEIMVEELKKEIDVIAAEMAAEREKEKETQEQ”: the “soluble on expression in E. coli” value is listed as “not soluble”. “MTIAQQERPVAASPYRFEAEMTSGLERVAAHHHDLTLTSVFQPIFSLSHMRAVGYEALLRAHDALDRPVSPLDVFGEAARHGEAAQVDRLAQALHLENFARFGAEREWLFLNVHPGVLTDPFQAAALFANLKRLEIPPRRIVLEVLEQRADDIERLADAVREFREQGFLIALDDFGAGHSNIERIWQLNPDIVKLDRIMLSHAQHRAGLTAILHGLVTLLHEAGKLVLIEGIETEHEAQIALACDADFVQGHFFGRPAPGLPDGAAASACIGELTERYRQQAEASERRDAQRLAPYQRAFERAAERLAAGEPLDEVCWNFLALDHAARCFLLDERGRQAGRNVVRRADRARHETRFLPLADAQGANWLRRPYFRSAIAAPGRVQATRPYLSINEALPCVTLSIAVRVHDALCVLCGDIDWIDDEASMSA”: the “soluble on expression in E. coli” value was “soluble”. As to “MTISVEKPIFEEEVSAFEKSGDNIGELKLDGGFSMPKMDTNDDEAFLAPEMNAFGRQFRDYDVESERQKGVEEFYRLQHINQTVDFVKKMRAEYGKLDKMVMSIWECCELLNEVVDESDPDLDEPQIQHLLQSAEAIRKDYPNEDWLHLTALIHDLGKVITLPQFGGLPQWAVVGDTFPVGCAFDESNVHHKYFVENPDFHNETYNTKNGIYSEGCGLNNVMMSWGHDDYMYLVAKENGSTLPSAGQFIIRYHSFYPLHTAGEYTHLMNEEDKENLKWLHVFNKYDLYSKSKVHVDVEKVKPYYMSLIKKYFPENLRW”, the “soluble on expression in E. coli” value was “soluble”. “MTITALTVTLPLLWRRLTTAGVKYADQGHFVGSAGVPAADAGGRDAASEQIARWTQTCTVVLVCGHGPAKWAFRSWCTSRSCDTLPVALRYRLQSNPLVGKLTTKYFLPLGTRQVGDHVVFFNFGYEEDPPMALPLSESDEPNRYCIQLYHQTASQVDLTGKEVLEVSCGAGGGASYIARNLGPASYTGLDLNPASIDLCRAKHRLPGLQFVQGDAQNLPFPDESFDAVVNVEASHQYPDFRGFLAEVARVLRPGGHFLYTDSRRNPVVAEWEAALADAPLRTISQRDIGAQAKRGLDANTARSQEAIGRRAPVLLAGLTRCAVRVLDWDLRRGGGFSYRIYLFAKD”: the “soluble on expression in E. coli” value is reported as “not soluble”. “MTIYTCTLNLAIDLFIETEELVPFVVNRTKEDDIQANGKGVNVSLILKMLGIDNTALGVKAGFTGNYVEDYLKEKEITTDFIEVAGTTRINVFTKVTQDQKEYKLVNKGPKLSEEHVQRFLKKISELRKGDYLCVSGSLPQGVSPSILIEISRICFEKQVFLILDSSYEEILDCLPYQPFLLKPNEEELQEWFHTEVQTKDDYIFYGQELLKRGAKNILLSLGSEGALFMNNEKVLSGNSPTGMVVNTACSGDAMLGTFLAGWHQGLSLEKNLKRSIAAGSSTAFRKGLTDFSDVQELEQQIKIQEEE”: the “soluble on expression in E. coli” value was “not soluble”. “MTIYTLSHGSLKLDVSDQGGVIEGFWRDTTPLLRPGKKSGVATDASCFPLVPFANRVSGNRFVWQGREYQLQPNVEWDAHYLHGDGWLGEWQCVSHSDDSLCLVYEHRSGVYHYRVSQAFHLTADTLTVTLSVTNQGAETLPFGTGWHPYFPLSPQTRIQAQASGYWLEREQWLAGEFCEQLPQELDFNQPAPLPRQWVNNGFAGWNGQARIEQPQEGYAIIMETTPPAPCYFIFVSDPAFDKGYAFDFFCLEPMSHAPDDHHRPEGGDLIALAPGESTTSEMSLRVEWLLEHHHHHH”: the “soluble on expression in E. coli” value was “soluble”. On to “MTKAETSIGVFYVSEYGYSDRLAQAIINGITKTGVGVDVVDLGAAVDLQELRELVGRCTGLVIGMSPAASAASIQGALSTILGSVNEKQAVGIFETGGGDDEPIDPLLSKFRNLGLTTAFPAIRIKQTPTENTYKLCEEAGTDLGQWVTRDRSIKAMKSLGLEHHHHHH”, for which the “soluble on expression in E. coli” value was “soluble”. For “MTKERFVISRRRTGFGDCLWSLASAWSYAQRTGRTLVIDWRGSCYVEQPFSNAFPAFFEPVEDIAGVPVICDDRVNQLSFPGPFFPRWWNRPSIDCINRPDEQIFRERDELTELFQAREDSEANTIVCDACLMWRCSEEAERLIFRNIKLRSEIRARIDALYEEHFSGHSIIGVHVRHGNGEDIMEHAPYWADSELALHQVCMAIRKAKALSYPKPVKVFLCTDSAQVLDQVSGLFPDVFAVPKRFQADRAGPLHSAEMGIEGGASALIDMYLLARCATVIRFPPTSAFTRYARLLVPRIIEFDLSNPGHLTMIDNPYEHFAASHHHHHH”, the “soluble on expression in E. coli” value is given as “soluble”. Consider “MTKIFEAKVLAVGPEALSMIKDANMLILFGEEAPQDLADYCYKIDNKNLSGHIKKGGHLVINGNDCQITAVGSVVEKNLTGLGHITISLDGSKESSLPGTLHIQAEFPVQLEAGSLIQIFD”, for which the “soluble on expression in E. coli” value is recorded as “soluble”. With “MTKKDKKEVKVQTVTTEDGETVKVFEDLQGFETFIANETEDDDFDHLHCKLNYYPPFVLHESHEDPEKISDAANSHSKKFVRHLHQHIEKHLLKDIKQAVRKPELKFHEKSKEETFDKITWHYGEETEYHGRPFKIDVQVVCTHEDAMVFVDYKTHPVGAN”, the “soluble on expression in E. coli” value was “soluble”. For “MTKQDQLIVEKMEQTYEAFSPKLANLIEALDAFKEHYEEYATLRNFYSSDEWFRLANQPWDDIPCGVLSEDLLFDMIGDHNQLLADILDLAPIMYKHM”, the “soluble on expression in E. coli” value was “not soluble”. As to “MTKSKSKKEDLIPEIGDFTKFFKSRSKFSDQITDVISNVYEWSTSLEPSEDNLPLPFVSKNEEVVWSYLKHQNKQLDGINKKYKGFLSELIGKSHIRVAAKIQDSEGSEDGSDGSDGGSEEELDDDEEELEDEELEDEMIDDEDEADLFNLSESDLKTLDADLKKMEEEEAGEEKEEVEKATEQPKKFKKSIVDDQFFNLDEMHDFLQKTERAGGKKAAQDEEMMFEDEDSWDGKTDYTYEDFFGSRETVAETEKMNGEKKKIEKDKKRKAGDKADLSLDDGKNKKRVRFAMDEEPEEEEVEDEEQEDINDEEEPPEDEPVLLGADLEEPKEESAFAKRQSKMKERIAKLEEENLAPKSWELSGEVAADQRDQNTLLEKHVDFDHGAKRAPEVTEEFTDRLESLIKQRIRDKAWDDVIRVKKVEAKGAKFETEAIENQMNQKTSLAEVYEKEYQNSTGNSADGAAGATKPNEAHEAIKSKMGDLFRLIDALTHFEYKPDQAREEVKVVSNMAALRVEEVGITASTEAQLMAPEEISKKMKAIEKSKDERDATDKARERRQKKAKQRSMLEKFGEERVFGEQKAVKLAKKERKAGKEKGGGVDKIKSSNFFAKLQETVAAEKKDGAVTKKKKKIVKRLKSDKNSAAIKL”, the “soluble on expression in E. coli” value was “not soluble”. Under “MTLEIRPAVPADAEQILAFIIELADYERARHEVVTDVEGIRRSLFAEGSPTRALMCLSEGRPIGYAVYFYSYSTWLGRNGIYLEDLYVTPEYRGVGAGRRLLRELAREAVANDCGRLEWSVLDWNQPAIDFYRSIGALPQDEWVRYRLDGEALRKMAE” stands “soluble”; under “MTLISPELKTQGFYASSYKGTDLIGLTKHYFREKHMKQLMLTLGIVNTYDKIKVLDAHYRAIARAAPICHAFGFHLALYDFPFKMTAEELVAFVMEKTTIGESGSYLKILYEKNHLSVSDLPKKGFPSQFGETVITTSKPDPKRKVMPVKIAEEALHNRSFLFLVGLGHKGLPKELFERGKYHLDITSKGLSLETCTAIGAVPAHLAGLMENLRCKK”, “not soluble”.

Take “MTLLTVKHLTITDTWTDQPLVSDVNFTLTKGETLGVIGESGSGKSITCKSIIGLNPERLGVTGEIIFDGTSMLSLSESQLKKYRGKDIAMVMQQGSRAFDPSTTVGKQMFETMKVHTSMSTQEIEKTLIEYMDYLSLKDPKRILKSYPYMLSGGMLQRLMIALALALKPKLIIADEPTTALDTITQYDVLEAFIDIKKHFDCAMIFISHDLTVINKIADRVVVMKNGQLIEQGTRESVLHHPEHVYTKYLLSTKKKINDHFKHVMRGDVHD”: the “soluble on expression in E. coli” value is reported as “not soluble”. For “MTLMGFRVKKVRNHVLWDKENDDRNAFTVIIGNNGCGKTELLIDTCNKYHSYYTSALLDKDTHVASAVHYLREDFSPHNWKTVEREYGHRLPRKLIAASTSQFEKFKANWSVRNDLVPSGFYAYIGSKPYMPSLSPSTRIASKAIQQLLGAEYFEERKHKALVGFLSKFDFGQKLLLKFELTFPNEDLENIQNQSLTEPETQLILKNAYIEHDEMELVELLGYCERIIEAPAFALTVGNQNLNLIHLKGSEQKPFSKLIISRMLRAGLITLSSIQTMKDKSLINDQSTVNIESSAISSLSKRSSGEQ” the value was “not soluble”; for “MTLSEEVASLQRAAHDLMYLGMDGSPIYSDDLSRRNNEVYRLTTTLYNSGVQGSTVEEQASVCLALLMGYNASFIDHGEKREHVQKILDRCWDILDTLPASLLKLRLLTACYGEVFDEPLADEARAIIASWDSVSLTTEQQEAINEFQTVVDNPYPWEYVEE”, “not soluble”. Take “MTLVVPFDGSELAEAALVRAAEFGTVFEEDVLAVSVIRNGNAKYAREHDWIGPNEDFDLEAVVTSLHEQVIDLCPSSDFRHTVVDRYAPAGAVAKAIRKLAKREDASMVFIGSENAGHLVTSISSVGGSIASDDAYDVVIVRHR”: the “soluble on expression in E. coli” value was “not soluble”. Regarding “MTMETVESQHDGSITASLTESKSAHVQTQTGQNSIPALAQVAAIAETDESAESGGVIDSHKRREILSRRPSYRKILNELSSDVPGVPKIEEERSEEEGTPPSIATMAVPTSIYQTSTGQYIAIAQGGTIQISNPGSDGVQGLQALTMTNSGAPPPGATIVQYAAQSADGTQQFFVPGSQVVVQAATGDMPTYQIRAPTAALPQGVVMAASPGSLHSPQQLAEEATRKRELRLMKNREAAKECRRRKKE”, the “soluble on expression in E. coli” value was “soluble”. Regarding “MTMPDYDLIAILGPTASGKTPFAAALAAELNTEIISADSRQIYRGMDLGTGKDLEDYTINGRQIPYHLIDIADPGYKYNVFEYQRDFLTAYETIKQKGCLPVLCGGTGLYLESVLKGYRLIPVPENQELRVRLAEKSLEELTAILSSYKTLHNSTDVDTVKRAIRAIEIEEYYAKTPIEEREFPQLNSLIIGVDIDRELRREKITRRLKQRLDDGMVEEVRRLLAEGIQPDDLIYYGLEYKYLTLYAIGKMTYDEMFTGLETAIHQFAKRQMTWFRGMERRGFTIHWVDASLPMEEKINFVKQKLKEFLEHHHHHH”, the “soluble on expression in E. coli” value was “not soluble”.
